Key:
[1] = target: T1, Homo sapiens factor Bb protein (human, UniProt P00751 260-764); experiment: SPR single cycle kinetics; against cynomolgus monkey factor Bb
T1 construct: Bought from CompTech (A155); also called complement factor Bb; human factor Bb
Procedure: (§1) The ability of VH4/VK6 and VH6/VK7 to bind to zymogen factor B and factor Bb from both human and cynomolgus monkey was determined by surface plasmon resonance using a Biacore T200. Human factor B and factor Bb were purchased from Comptech and cynomolgus monkey factor B and factor Bb were purified in-house. Briefly, the monoclonal antibodies were captured on a Biacore Series S Protein A chip in HBSP+ (10 mM HEPES, 150 mM NaCl, 0.05% P20 pH 7.4) at a flow rate of 30 μL/min. A five-point concentration series of each analyte was tested for binding using single cycle kinetics with a contact time of 180 seconds per concentration followed by a 600 sec dissociation at 25° C. and a flow rate of […]. Both human and cynomolgus monkey factor B started at a concentration of 500 nM followed by 2-fold dilutions, while human and cynomolgus monkey factor Bb started at concentrations of 30 nM and 150 nM, respectively, followed by 2-fold dilutions. Data were analyzed using the Biacore evaluation software using a 1:1 binding model. […] Binding to human or cynomolgus monkey factor B was barely detectable and the small signal that was observed was dominated by non-specific binding.

[2] = target: T1, Homo sapiens factor Bb protein; experiment: BLI Octet, biotinylated antibody on SA biosensors
Procedure: Briefly, biotinylated antibodies were loaded onto SA Biosensors equilibrated in PBS, 0.1% BSA, 0.02% Tween-20 (assay buffer). After a 60 second baseline in assay buffer, antibodies were loaded onto the probes for 180 seconds, followed by another 60 second baseline. Association to human (Comptech) or cynomolgus monkey factor Bb (purified in-house) was measured for 300 seconds, followed by a 300 second dissociation. Kinetic parameters were calculated by the Octet Analysis software using a 1:1 binding model.
To determine whether the modification of the Fc portion of the antibodies affected affinity and species cross-reactivity, VH4/VK6-IgG4v2 and VH6/VK7-IgG4v2 were tested alongside their parental antibodies, VH4/VK6 and VH6/VK7, respectively, for their ability to bind human and cynomolgus monkey factor Bb by BLI. VH4/VK6-IgG4v2 and VH6/VK7-IgG4v2 contain mutations in the Fc region that increase the affinity for an Fc receptor.

[3] = target: T1, Homo sapiens factor Bb protein; experiment: SPR single cycle kinetics, antibody on Protein A chip, antigen analyte
Procedure: as §1

T1 sequence (P00751 260-764 limits assumed): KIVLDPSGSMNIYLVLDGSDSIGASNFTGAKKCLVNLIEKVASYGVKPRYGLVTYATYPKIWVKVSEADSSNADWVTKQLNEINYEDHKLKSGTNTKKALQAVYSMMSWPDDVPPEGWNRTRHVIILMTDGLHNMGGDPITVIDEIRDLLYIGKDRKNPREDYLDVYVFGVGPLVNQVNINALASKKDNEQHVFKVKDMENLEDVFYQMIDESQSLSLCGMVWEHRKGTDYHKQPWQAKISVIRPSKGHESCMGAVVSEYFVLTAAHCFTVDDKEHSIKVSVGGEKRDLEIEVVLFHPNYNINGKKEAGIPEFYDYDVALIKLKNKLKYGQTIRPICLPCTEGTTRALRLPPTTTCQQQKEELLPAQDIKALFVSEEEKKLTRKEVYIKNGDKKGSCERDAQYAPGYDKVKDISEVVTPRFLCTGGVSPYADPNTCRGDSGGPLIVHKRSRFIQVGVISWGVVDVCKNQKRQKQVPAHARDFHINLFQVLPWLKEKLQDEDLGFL

B1: VH4/Vκ6-IgG4v2 (antibody)
heavy: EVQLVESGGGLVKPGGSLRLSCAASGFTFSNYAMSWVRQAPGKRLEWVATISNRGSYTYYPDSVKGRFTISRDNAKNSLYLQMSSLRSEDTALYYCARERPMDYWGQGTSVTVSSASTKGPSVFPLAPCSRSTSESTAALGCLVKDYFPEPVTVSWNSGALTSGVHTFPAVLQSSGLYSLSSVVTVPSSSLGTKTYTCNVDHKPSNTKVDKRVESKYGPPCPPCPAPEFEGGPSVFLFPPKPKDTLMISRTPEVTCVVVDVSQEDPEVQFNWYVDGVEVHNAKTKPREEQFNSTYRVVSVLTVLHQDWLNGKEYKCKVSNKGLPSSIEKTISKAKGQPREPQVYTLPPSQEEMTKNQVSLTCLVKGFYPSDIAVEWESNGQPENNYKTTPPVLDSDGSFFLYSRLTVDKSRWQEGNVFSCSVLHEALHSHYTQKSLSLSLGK
light: DIVMTQSPSFLSASVGDRVTITCKASQDVGTAVAWYQQKPGKAPKLLIYWASTRHTGVPDRFTGSGSGTDFTLTISSLQSEDFAVYFCHQHSSNPLTFGQGTKLEIKRTVAAPSVFIFPPSDEQLKSGTASVVCLLNNFYPREAKVQWKVDNALQSGNSQESVTEQDSKDSTYSLSSTLTLSKADYEKHKVYACEVTHQGLSSPVTKSFNRGEC
notes: also called VH4/VK6-IgG4v2
- fold higher affinity for human factor Bb compared to cynomolgus monkey factor Bb [1]: ~10 fold
- Kd [2]: 1.6 nM
- Kd [3]: 2.26 nM
- koff [3]: 0.000925 s⁻¹
- kon [3]: 410000 M⁻¹ s⁻¹

Source: patent US20210332115A1 (Sanofi, published 2021)
